B1: 3E9 Fab (Fab, V domains shown)
VH: EVQLVESGGGLVQPGGSLRLSCAASGFNLYYSSMHWVRQAPGKGLEWVASIYPSYGSTYYADSVKGRFTISADTSKNTAYLQMNSLRAEDTAVYYCARNGRYPGFLKRAHKRLLNFKAYVMDYWGQGTLVTVSS
VL: DIQMTQSPSSLSASVGDRVTITCRASQSVSSAVAWYQQKPGKAPKLLIYSASSLYSGVPSRFSGSRSGTDFTLTISSLQPEDFATYYCQQGSWYLITFGQGTKVEIK
B2: 3A2 Fab (Fab, V domains shown)
VH: EVQLVESGGGLVQPGGSLRLSCAASGFNLSSSSMHWVRQAPGKGLEWVASIYPSYSYTYYADSVKGRFTISADTSKNTAYLQMNSLRAEDTAVYYCARVKLQKDKSHQWIRNLVATPYGRYVMDYWGQGTLVTVSS
VL: DIQMTQSPSSLSASVGDRVTITCRASQSVSSAVAWYQQKPGKAPKLLIYSASSLYSGVPSRFSGSRSGTDFTLTISSLQPEDFATYYCQQYGYPITFGQGTKVEIK
notes: numbers count on the anti-TDRD3 Fab; From a synthetic human Fab library with 23-27 residue long CDR-H3; selection is described in an accompanying manuscript (submitted); also called 3A2 antibody; 3A2 Fab antibody; source: E. coli, purified from cell lysates (purity >95%)
B3: 2B5 Fab (Fab, V domains shown)
VH: EVQLVESGGGLVQPGGSLRLSCAASGFNLSYSSMHWVRQAPGKGLEWVASIYPYSGYTYYADSVKGRFTISADTSKNTAYLQMNSLRAEDTAVYYCARIGVNAWAVKMSQRMLATRGSGWYVMDYWGQGTLVTVSS
VL: DIQMTQSPSSLSASVGDRVTITCRASQSVSSAVAWYQQKPGKAPKLLIYSASSLYSGVPSRFSGSRSGTDFTLTISSLQPEDFATYYCQQSSSYPYSPITFGQGTKVEIK
notes: VH CDR-H3; Only CDR-H3 is printed; Same synthetic human Fab library as 3A2 (accompanying manuscript, submitted); source: E. coli, purified from cell lysates (purity >95%)
B4: DX2400 Fab (Fab, V domains shown)
VH: EVQLLESGGGLVQPGGSLRLSCAASGFTFSLYSMNWVRQAPGKGLEWVSSIYSSGGSTLYADSVKGRFTISRDNSKNTLYLQMNSLRAEDTAVYYCARGRAFDIWGQGTMVTVSS
VL: DIQMTQSPSSLSASVGDRVTITCRASQSVGTYLNWYQQKPGKAPKLLIYATSNLRSGVPSRFSGSGSGTDFTLTISSLQPEDFATYYCQQSYSIPRFTFGPGTKVDIK
notes: VH CDR-H3; Only CDR-H3 is printed; also called DX2400 Fab fragment; source: cloning, expression and isolation reported earlier [66]

Experiments:
[1] = biological target: T1, individual catalytic domain of human MT1-MMP (MT1-CAT) (human, UniProt P50281, biotin (EZ-Link sulfo-NHS-LC-biotin, 1:20 enzyme-biotin molar ratio) in the Fab binding ELISA only; unlabelled in the competition ELISA and the cleavage assays); test: cell-based or functional assay
[2] = biological target: T1, individual catalytic domain of human …; test: ELISA; biotin-labelled MT1-CAT (25 nM) captured on streptavidin-coated wells; Fab 0-8,000 nM in TBS/T-0.5% gelatin, 1 h, ambient temperature; detected with HRP-conjugated goat anti-human Fab; Kd = Fab concentration that bound 50% of MT1-MMP; conditions: both partners purified

Binder | IC50 of inhibition of MT1-CAT (5 nM) cleavage of the Mca-PLGL-Dpa-AR-NH2 peptide (1 uM); Fab 0-5,000 nM [1] [nM] | Kd [2] [nM] | binding result [2]
B1 | > 5000 | – | –
B2 | 18 | 8 | –
B3 | – | – | binds
B4 | 8.5 | 2 | –
